Test results published in article PMC3166298, “Phosphorylation Alters the Interaction of the Arabidopsis Phosphotransfer Protein AHP1 with Its Sensor Kinase ETR1” (PLoS ONE, 2011).
Where a chain is given by its changes, count along the chain named. In names and notes the source's numbering stands.

T1: dansylated AHP1 (Arabidopsis), Q9ZNV9
T1 chain: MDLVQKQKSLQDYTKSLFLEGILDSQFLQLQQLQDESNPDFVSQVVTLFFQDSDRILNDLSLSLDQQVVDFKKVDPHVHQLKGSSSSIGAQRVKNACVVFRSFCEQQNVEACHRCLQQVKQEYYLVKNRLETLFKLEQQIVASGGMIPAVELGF

T2: AHP1-GFP(S65T), wild type Arabidopsis histidine-containing phosphotransfer protein 1 fused to green fluorescent protein (Arabidopsis), Q9ZNV9
T2 chain: T1 chain

T3: ETR1-D659A (Arabidopsis, UniProt P49333 1-738, D659A)
T3 construct: Represents the non-phosphorylated state of the receiver domain
T3 sequence (looked up): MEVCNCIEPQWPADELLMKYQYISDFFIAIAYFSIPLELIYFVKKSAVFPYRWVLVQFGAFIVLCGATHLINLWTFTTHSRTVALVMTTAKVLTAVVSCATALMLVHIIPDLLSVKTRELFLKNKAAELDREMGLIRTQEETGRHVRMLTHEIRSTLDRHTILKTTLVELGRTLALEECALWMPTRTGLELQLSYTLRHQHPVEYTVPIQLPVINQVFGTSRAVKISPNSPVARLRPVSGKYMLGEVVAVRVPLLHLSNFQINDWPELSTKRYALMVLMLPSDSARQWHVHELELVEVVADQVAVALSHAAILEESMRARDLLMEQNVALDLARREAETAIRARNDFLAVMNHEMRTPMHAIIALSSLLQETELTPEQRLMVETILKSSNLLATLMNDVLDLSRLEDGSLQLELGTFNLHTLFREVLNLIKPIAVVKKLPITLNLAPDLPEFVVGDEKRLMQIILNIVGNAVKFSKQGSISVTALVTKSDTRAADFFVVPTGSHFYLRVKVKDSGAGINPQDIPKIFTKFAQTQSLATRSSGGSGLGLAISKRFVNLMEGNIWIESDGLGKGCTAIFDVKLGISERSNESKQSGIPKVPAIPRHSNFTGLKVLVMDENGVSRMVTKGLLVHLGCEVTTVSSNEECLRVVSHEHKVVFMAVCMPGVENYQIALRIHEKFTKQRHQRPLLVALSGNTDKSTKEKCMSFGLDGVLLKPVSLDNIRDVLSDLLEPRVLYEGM

T4: ETR1-D659E (Arabidopsis, UniProt P49333 1-738, D659E)
T4 construct: Phosphomimetic of the receiver domain aspartate; also called ETR1 mutant mimicking permanent phosphorylation
T4 sequence (looked up): T3 sequence (looked up) with A659E

B1: dansylated AHP1, Q9ZNV9 1-154 (natural protein)
chain: T1 chain
modifications: here or on the partner: dansyl label (dansyl chloride; typical ratio of protein-dansyl labeling 1:4), positions not given; dansyl label (dansyl chloride; typical ratio of protein-dansyl labeling 1:4), positions not given
B2: AHP1-GFP(S65T), wild type Arabidopsis histidine-containing phosphotransfer protein 1 fused to green fluorescent protein, Q9ZNV9 1-154 (natural protein)
chain: T1 chain
B3: AHP1(H79A)-GFP(S65T) (natural protein, Arabidopsis, UniProt Q9ZNV9 1-154, looked up)
chain: T1 chain with H79A
notes: AHP1, Arabidopsis histidine-containing phosphotransfer protein 1
B4: AHP1(H79E)-GFP(S65T) (natural protein, Arabidopsis, UniProt Q9ZNV9 1-154, looked up)
chain: T1 chain with H79E
notes: AHP1, Arabidopsis histidine-containing phosphotransfer protein 1; also called AHP1 mutant mimicking permanent phosphorylation
B5: dansylated ETR1 (receptor, Arabidopsis, UniProt P49333 1-738, looked up)
chain: T3 sequence (looked up) with A659D
modifications: dansyl label (dansyl chloride; typical ratio of protein-dansyl labeling 1:4), positions not given
notes: In a dodecylmaltoside micelle; theoretical molecular weight printed as 84.9 kDa; also called ETR1 (dansylated); source: recombinant, purified from the bacterial host, then dansylated
B6: dansylated AHP1 (natural protein, Arabidopsis, UniProt Q9ZNV9 1-154, looked up)
chain: T1 chain
modifications: dansyl label (dansyl chloride; typical ratio of protein-dansyl labeling 1:4), positions not given
notes: Theoretical molecular weight printed as 18.3 kDa; also called AHP1 (dansylated, without GFP); source: recombinant, purified from the bacterial host, then dansylated
B7: ethylene receptor ethylene response 1 (ETR1), wild type (receptor, Arabidopsis, UniProt P49333 1-738, looked up)
chain: T3 sequence (looked up) with A659D
notes: Solubilised in beta-D-dodecylmaltoside; also called sensor kinase ETR1; AtETR1

Assays:
CheW = CheW (UniProt P0A964); conditions: cited from earlier work
CheW, sequence (P0A964 whole entry): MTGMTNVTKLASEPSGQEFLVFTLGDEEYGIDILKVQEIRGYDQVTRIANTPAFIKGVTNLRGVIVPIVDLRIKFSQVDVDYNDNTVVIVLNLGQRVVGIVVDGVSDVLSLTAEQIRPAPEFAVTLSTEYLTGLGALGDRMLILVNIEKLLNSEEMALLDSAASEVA

[1] = target: T1, dansylated AHP1 (Arabidopsis), Q9ZNV9; assay: fluorescence polarisation; Perrin plot of a single dansylated protein at 0.2 uM; 0.2 M potassium phosphate pH 8.0, 0.05% beta-D-dodecylmaltoside, 10 mM beta-cyclodextrin; 5-25 C; apparent molecular weight; conditions: remark: other sources report otherwise
[2] = target: T1, dansylated AHP1 (Arabidopsis), Q9ZNV9; assay: fluorescence polarisation; Perrin plot of 2 uM ETR1 together with 0.2 uM dansylated AHP1; 0.2 M potassium phosphate pH 8.0, 0.05% beta-D-dodecylmaltoside, 10 mM beta-cyclodextrin; 5-25 C; apparent molecular weight; conditions: remark: other sources report otherwise
[3] = target: T2, AHP1-GFP(S65T), wild type Arabidopsis …; assay: fluorescence polarisation; Perrin plot (anisotropy against temperature/viscosity) of 20 nM AHP1-GFP; 50 mM Tris-HCl pH 7.5, 100 mM KCl, 0.1% beta-D-dodecylmaltoside, 0.002% PMSF; 10-30 C, 0-20% glycerol; apparent molecular weight; conditions: remark: other sources report otherwise
ETR1-D659A = target: T3, ETR1-D659A; assay: fluorescence polarisation; ETR1 mutant (0.04-20 uM) titrated to 8 nM AHP1 mutant-GFP(S65T); 50 mM Tris-HCl pH 7.5, 100 mM KCl, 0.1% beta-D-dodecylmaltoside, 0.002% PMSF; fit to a single binding site; conditions: both partners purified
ETR1-D659E = target: T4, ETR1-D659E; assay: as above; conditions: both partners purified
[4] = target: the molecule itself; assay: fluorescence polarisation; Perrin plot of a single dansylated protein at 0.2 uM; 0.2 M potassium phosphate pH 8.0, 0.05% beta-D-dodecylmaltoside, 10 mM beta-cyclodextrin; 5-25 C; apparent molecular weight
[5] = target: B7; assay: fluorescence polarisation; Perrin plot of 2 uM ETR1 together with 0.2 uM dansylated AHP1; 0.2 M potassium phosphate pH 8.0, 0.05% beta-D-dodecylmaltoside, 10 mM beta-cyclodextrin; 5-25 C; apparent molecular weight; conditions: both partners purified
[6] = target: the molecule itself; assay: as above

CheA (from UniProt P07363)
Kd (CheW): 17 µM

B1
stoichiometry N [1]: 2 | stoichiometry N [2]: 2

B2
stoichiometry N [3]: 2

B3
Kd (ETR1-D659A): 15.4 µM | Kd (ETR1-D659E): 2.6 µM

B4
Kd (ETR1-D659A): 3.6 µM | Kd (ETR1-D659E): 16.3 µM

B5
stoichiometry N [4]: 2

B6
binding result [5]: binds

B7
stoichiometry N [6]: 2
